According to article PMC6771595:

What was measured:
[1] = target: PptA, phosin (polyP-targeting protein) from Streptomyces chartreusis (Streptomyces chartreusis); assay: SEC
[2] = target: PptA, phosin (polyP-targeting protein) from Streptomyces chartreusis (Streptomyces chartreusis); assay: SAXS

PptA, phosin (polyP-targeting protein) from Streptomyces chartreusis (natural protein)
stoichiometry N [1]: 2 | stoichiometry N [2]: 2
